T1: recombinant human IL-22R (R&D Systems / Biotechne 2770-LR) (human, UniProt Q8N6P7 16-228)
T1 construct: Bought soluble recombinant protein (said to be 25 kDa); also called hIL22R; IL-22R1
T1 sequence: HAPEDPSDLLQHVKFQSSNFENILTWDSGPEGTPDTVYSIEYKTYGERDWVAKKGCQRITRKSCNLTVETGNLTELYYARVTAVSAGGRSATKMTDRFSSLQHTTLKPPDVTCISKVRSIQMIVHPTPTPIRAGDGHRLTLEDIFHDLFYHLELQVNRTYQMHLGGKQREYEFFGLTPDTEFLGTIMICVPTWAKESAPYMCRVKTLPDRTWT

T2: recombinant mouse IL22R (monomeric, R&D Systems cat 4248-MR) (mouse, UniProt Q80XZ4 16-230)
T2 construct: extracellular domain; also called murine IL-22R; mIL22R
T2 sequence (looked up): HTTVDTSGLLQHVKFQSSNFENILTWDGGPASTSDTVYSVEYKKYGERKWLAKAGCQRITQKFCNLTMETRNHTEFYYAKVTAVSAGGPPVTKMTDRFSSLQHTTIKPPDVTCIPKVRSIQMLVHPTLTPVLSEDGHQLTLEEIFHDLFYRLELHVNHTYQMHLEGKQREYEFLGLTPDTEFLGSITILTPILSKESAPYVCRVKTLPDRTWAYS

T3: rhIL22R-Fc (rhesus IL22R ECD fused to human Fc) (rhesus monkey, UniProt G7MHN4 16-228)
T3 construct: also called rhesus IL-22R1
T3 sequence: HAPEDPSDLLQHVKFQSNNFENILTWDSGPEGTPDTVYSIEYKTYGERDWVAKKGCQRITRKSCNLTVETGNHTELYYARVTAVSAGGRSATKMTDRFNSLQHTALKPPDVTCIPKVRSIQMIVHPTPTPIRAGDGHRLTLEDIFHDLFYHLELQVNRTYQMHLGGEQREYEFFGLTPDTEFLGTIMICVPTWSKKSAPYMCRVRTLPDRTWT

T4: human IL-22R expressed on cells (BW-hIL22R, Baf3-hIL22R/IL20Rb, transfected HEK, primary human skin cells) (human, UniProt Q8N6P7 16-574)
T4 sequence: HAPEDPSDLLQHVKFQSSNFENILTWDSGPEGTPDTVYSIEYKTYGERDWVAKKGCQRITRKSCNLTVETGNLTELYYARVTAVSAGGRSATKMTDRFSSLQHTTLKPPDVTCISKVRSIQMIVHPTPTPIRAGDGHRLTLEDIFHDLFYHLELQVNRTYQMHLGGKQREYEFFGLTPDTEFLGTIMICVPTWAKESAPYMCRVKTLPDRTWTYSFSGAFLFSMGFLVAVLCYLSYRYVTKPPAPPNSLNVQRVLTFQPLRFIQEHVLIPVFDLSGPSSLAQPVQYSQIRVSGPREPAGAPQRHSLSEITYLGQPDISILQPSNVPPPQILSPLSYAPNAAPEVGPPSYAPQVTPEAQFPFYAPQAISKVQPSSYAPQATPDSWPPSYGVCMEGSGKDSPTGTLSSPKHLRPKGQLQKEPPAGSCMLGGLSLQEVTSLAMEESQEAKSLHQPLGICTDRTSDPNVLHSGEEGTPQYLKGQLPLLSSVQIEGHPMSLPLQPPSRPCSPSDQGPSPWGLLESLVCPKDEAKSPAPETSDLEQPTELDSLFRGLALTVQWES


How the values were obtained:
[1] = biological target: T1, recombinant human IL-22R (R&D Systems / …); experiment: SPR (Biacore), purified Fab
[2] = biological target: T2, recombinant mouse IL22R (monomeric, R&D …); experiment: SPR (Biacore), purified Fab
[3] = biological target: T1, recombinant human IL-22R (R&D Systems / …); experiment: off-rate of Fab fragment; method not stated
[4] = biological target: T3, rhIL22R-Fc (rhesus IL22R ECD fused to …); experiment: off-rate of Fab fragment; method not stated
[5] = biological target: T2, recombinant mouse IL22R (monomeric, R&D …); experiment: ELISA and SPR (Biacore), mAb
Procedure: After production and purification of the cyIL22R-Fc and the rhIL22R-Fc, the binding specificity to cynomolgus, rhesus and mouse IL22R ECD of all the antibodies from primary selection was tested in ELISA and by SPR (Biacore). Monomeric mouse IL22R was purchased from R&D Systems (cat 4248-MR).

[6] = biological target: T1, recombinant human IL-22R (R&D Systems / …); experiment: SPR (Biacore 3000), IL22R on CM5 chip, IgG1 injected
Procedure: In addition to the potency on cells, the in vitro binding kinetics and blocking activity of the purified antibodies were measured in Biacore (3000). […] Antibodies tested at a range of concentrations and prepared in HBSEP buffer at pH 7.4 (Biacore) were injected at 30 μl/min for 60 second and washed with HBSEP buffer at pH 7.4 (Biacore) for 10-20 min. The obtained sensograms were analyzed with the BIAevaluation software and kinetics were determined using standard fitting (Langmuir 1:1 with mass transfer).

[7] = biological target: T4, human IL-22R expressed on cells …; experiment: cell-based or functional assay
[8] = biological target: T4, human IL-22R expressed on cells …; experiment: cell-based or functional assay; remark: listed apart in the source
[9] = biological target: cynoIL22R_ECD-humanTM_humanICD chimera on transfected cells (cynomolgus monkey; human, UniProt Q8N6P7 229-574); experiment: cell-based or functional assay
[10] = biological target: rhesus IL22R ECD - human TM - human ICD chimera on transfected HEK cells (rhesus monkey; human, UniProt Q8N6P7 229-574); experiment: cell-based or functional assay
[11] = biological target: T4, human IL-22R expressed on cells …; experiment: cell-based or functional assay; remark: listed apart in the source
[12] = biological target: T1, recombinant human IL-22R (R&D Systems / …); experiment: SPR (Biacore), hIL22R on CM5 chip, mAb injected, 1:1 Langmuir
Procedure: The affinity of the 230C9 and 223G5 antibodies was measured using SPR ([…]). In brief, 250RU of human IL22R (Biotechne, 2770-LR) was coated onto a CM5 chip using standard methods (EDC coupling of IL22R at a concentration of 2 μg/ml in acetate buffer pH4.5). Then various concentrations of antibody were injected in HBSEP+ buffer (pH 7.4) for 2 minutes. The binding was monitored also during a 10 min washing (HBSEP+).

koff [3] [s⁻¹] | koff [4] [s⁻¹] | Kd [6] [nM] | koff [6] [s⁻¹] | kon [6] [M⁻¹ s⁻¹] | further results | Binder
 |  |  |  |  | koff [1]: 0.0037 s⁻¹; binding result [2]: no binding | 157A2 Fab (Fab, V domains shown, VH family 4; purified llama Fab) VH: QVQLVESGGGLVQPGGSLRLSCAASGFTFSSYDMSWVRQAPGKGLEWVSSIYNDGSNTAYSDSVKGRFTISRDNAKNTLYLQMNSLKSEDTAVYYCAKVGFSGTYYSESWGQGTQVTVSS VL: NFMLTQPSAVSVSLGQTAKITCQGGYYAHWYQQKPGQAPVLVIYGNNNRPSGIPERFSGSSSGNTATLTISGAQAEDEAEYYCQSGSSSANAVFGGGTHLTVL
0.000352 | 0.000436 |  |  |  |  | 230C9 Fab (Fab, V domains shown, Germlined variant of 218A7) VH: QVQLVESGGGLVQPGGSLRLSCAASGFTFSSYDMNWVRQAPGKGLEWVSSIYNDASNTAYSDSVKGRFTISRDNSKNTLYLQMNSLRAEDTAVYYCAKVGFSGTYYSESWGQGTLVTVSS VL: SYELTQPSSVSVALGQTARITCQGGYYAHWYQQKPGQAPVLVIYGQNNRPSGIPERFSGSGAGNTATLTISRAQAEDEADYYCQSGSSSSNAVFGGGTKLTVL
 |  | 2.8 | 0.0011 | 390000 | binding result [5]: no binding | 157A2 mAb (antibody, IgG1, V domains shown, VH family 4; produced as IgG1 with human constant domains) VH: QVQLVESGGGLVQPGGSLRLSCAASGFTFSSYDMSWVRQAPGKGLEWVSSIYNDGSNTAYSDSVKGRFTISRDNAKNTLYLQMNSLKSEDTAVYYCAKVGFSGTYYSESWGQGTQVTVSS VL: NFMLTQPSAVSVSLGQTAKITCQGGYYAHWYQQKPGQAPVLVIYGNNNRPSGIPERFSGSSSGNTATLTISGAQAEDEAEYYCQSGSSSANAVFGGGTHLTVL
0.00081 | 0.00097 |  |  |  |  | 218A7 Fab (Fab, V domains shown, Light chain shuffled variant of 157A2) VH: QVQLVESGGGLVQPGGSLRLSCAASGFTFSSYDMSWVRQAPGKGLEWVSSIYNDGSNTAYSDSVKGRFTISRDNAKNTLYLQMNSLKSEDTAVYYCAKVGFSGTYYSESWGQGTQVTVSS VL: LPVLTQPSAVSVSLGQTARITCQGGYYAHWYQQKPGQAPVLVIYGQNNRPSGIPERFSGSGAGNTATLTISGAQAEDEAEYYCQSGSSSANAVFGGGTKLTVL
 |  | 0.12 | 9.3e-05 | 760000 |  | 170B2 mAb (antibody, V domains shown) VH: EVQLVESGGGLVQPGGSLRLSCAASGFTFSSSWMYWVRQAPGKGLEFVSVINTRSGITHYVESVKGRFTISTDNAKNTLFLQMNSLKSEDTAVYYCATRIQGLIDYWGQGTQVTVSS VL: DIVMTQSPSSLSVSLGDRVTITCQASQSIGSVNALAWYQQKPGQSLKLLIHGASRLQTGVPSRFSGSGSGTSFTLAISGVEAEDLATYYCLQDYAWPLTFGQGTKVELK
 |  | 0.24 | 6.4e-05 | 270000 | IC50 blocking IL-22 (nM), BWhIL22R cell line [7]: 0.69 nM; Relative potency to 280.346.TSY (IL-22, BWhIL22R cell line) [7]: 1 fold; IC50 blocking IL-20 (nM), Baf3hIL22R/IL20Rb cell line [8]: 1.49 nM; EC50 (nM), STAT3-reporter in HEK cells after human IL22, Cyno ECD [9]: 0.16 nM; EC50 (nM), STAT3-reporter in HEK cells after human IL22, Rhesus ECD [10]: 0.43 nM; EC50 (nM), STAT3-reporter in HEK cells after human IL22, Human ECD [11]: 0.26 nM; Kd [12]: 0.69 nM; koff [12]: 0.00034 s⁻¹; kon [12]: 490000 M⁻¹ s⁻¹ | 280.346.TSY (benchmark humanised IL-22R antibody of WO2011/061119) (antibody, V domains shown) VH: EVQLVESGGGLVQPGGSLRLSCAASGYSITAEYMNWVRQAPGKGLEWIGEINPSTGTTTYNQKFKGRFTISVDQSKNTAYLQMNSLRAEDTAVYYCARFDAYFDYWGQGTLVTVSS VL: not shown
0.000529 | 0.00584 |  |  |  |  | 223G5 Fab (Fab, V domains shown, Germlined variant of 166G8) VH: QVQLVESGGGLVQPGGSLRLSCAASGFTFSSYFMSWVRQAPGKGPEWVSGIHISGGITYYTDSVKGRFTISRDNAKNTLYLQMNSLRAEDTAVYYCVTPPGPFKAHYNGAKYWGKGTLVTVSS VL: QSALTQPPSVSGSPGQSVTISCTGTSSDIGSYNYVSWYQQLPGKAPKLLIYEVNKRSSGVPDRFSGSKSGNTASLTISGLQAEDEADYYCASYRLYADYVFGGGTQLTVL
 |  | 0.022 | 0.0002 | 9.2e+06 | binding result [5]: no binding | 166G8 mAb (antibody, IgG1, V domains shown, VH family 5; produced as IgG1 with human constant domains) VH: QVQLVESGGGLVQPGDSLRLSCAASGFTFGSYFMSWVRQAPGKGPEWVSGIHISGGITYYLDSVKGRFTISRDNAKNTLYLQMNNLKPEDTAVYYCVTPPGPFKAHYNGMKYWGKGTLVTVSS VL: NFMLTQPPSVSGTLGKTVTISCTGTSRDIGDYNYVSWYQQLPGLAPKLLIYKVNTRSSGTPDRFSGSKSGNTASLTISGLQSEDEADYYCASYRLYADYVFGGGTHLTVL

Source: US20230088269A1 (ARGENX BVBA, published 2023)
